Sequences and labels used below:
T1: cEYFP-PhBSβ (PhBSβ tagged at its N-terminus with the C-terminal half of EYFP) (Petunia hybrida)
T1 construct: BiFC construct, transiently expressed in Nicotiana benthamiana leaves; not shown: C-terminal half of enhanced yellow fluorescent protein (cEYFP) of plasmid pCNHP-cYFP-C
T1 chain: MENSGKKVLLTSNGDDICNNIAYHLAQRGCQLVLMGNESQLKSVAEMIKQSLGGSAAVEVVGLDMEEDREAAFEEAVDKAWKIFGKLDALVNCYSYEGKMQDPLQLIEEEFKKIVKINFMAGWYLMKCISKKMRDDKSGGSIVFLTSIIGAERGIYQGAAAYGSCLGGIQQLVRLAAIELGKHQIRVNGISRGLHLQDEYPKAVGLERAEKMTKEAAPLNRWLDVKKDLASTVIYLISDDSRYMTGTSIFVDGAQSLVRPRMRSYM

B1: MBP-tagged AtBSβ (beta subunit of Arabidopsis thaliana benzaldehyde synthase) (enzyme, not shown: large carriers)
chain: MENPAKRVLMTSNGDEVSRNIAFHLAKHGCKLVMMGNEGSLRSIVDKIRDSIEGAFPADVIALDMESDSEVAFHAAVQKAWELSGHFDAFLNSYTYQGKVQDILQVSQDEFHRITKINLTAPWFLLKAVATRMKDHGSGGSIVFMATIASGERALYPGADAYASTSAAIHQLVRASAMSLGKHKIRVNMISRGLHLDDEYTASVGRDRAQKLVKDAAPLGQWLNPDTDLYSTVIYLISDGSRFMTGTTVLVDGAQSLTRPRLKSYM
notes: Purified recombinant subunit from E. coli; CDS amplified from flower cDNA (gene AT3G01980)
B2: MBP-tagged PhBSβ (beta subunit of Petunia hybrida benzaldehyde synthase) (enzyme, not shown: large carriers)
chain: T1 chain
notes: Purified recombinant subunit from E. coli (pMAL-c5X, amylose resin); also called PtBSβ
B3: nEYFP-PhBSα (PhBSα tagged at its N-terminus with the N-terminal half of EYFP) (other)
chain: MEKQTQARFLEPWRDLKGKVVMVTGASSGIGLDLCLDLAKAGCKIIAAARRVDRLKSLCNQINAAADDDDDNNRAVAVELDVSANGDAIEAAVKEAWGAFGRIDALVNNAGVRGTVHSPLELTEEECHNTFRTNLTGTWLVSKYVCKFMRDAKQGGSVINISSIAGLNRGQLPGGLAYVSSKGAVNMVTKVMALELGVDKIRVNSISPGLFKSEITQGLIQKEWLNNVAMRTIPLRTHGNSADPALTSVVRYLIHDSSEYVSGNLFIVDAGATLPGVPIFSSL
notes: BiFC construct, transiently expressed in Nicotiana benthamiana leaves; not shown: N-terminal half of enhanced yellow fluorescent protein (nEYFP) of plasmid pCNHP-nEYFP-C
B4: MBP-PhBSα (maltose binding protein-tagged alpha subunit of Petunia hybrida benzaldehyde synthase) (enzyme, not shown: large carriers)
chain: B3 chain
notes: Coding region amplified from petunia petal cDNA, expressed in E. coli from pMAL-c5X, purified on amylose resin; also called MBP-tagged α-subunit; MBP-PbBSα

Data set [1] deals with the molecule itself. Briefly: size exclusion chromatography (Superdex 200 Increase 10/300 GL), about 1 mg/mL; self-association. The procedure: (§1) 500 μL purified protein (˜ 500 μg) were loaded onto a Superdex 200 Increase 10/300 GL size exclusion column and eluted with PBS. The column was calibrated with the following markers: bovine thyroglobulin (670 kDa), bovine gamma globulin (158 kDa), chicken ovalbumin (44 kDa), horse myoglobulin (17 kDa), and vitamin B-12 (1.4 kDa).
(In gel filtration, larger molecules generally elute earlier.)

For data set [2], the target named is B4. As to the kind of experiment: size exclusion chromatography (Superdex 200 Increase 10/300 GL), about 1 mg/mL. Here is the method: as §1
For data set [3], the target named is T1, cEYFP-PhBSβ (PhBSβ tagged at its …). As to the kind of experiment: bimolecular fluorescence complementation (BiFC) in Nicotiana benthamiana leaves, confocal microscopy.
Method: The resulting constructs were used for transient expression in N. benthamiana leaves.
Transformation of constructs into A. tumefaciens and infiltration of cell cultures in tobacco leaves were performed as described above except that the final OD₆₀₀ of the culture was adjusted to 0.6. […] 48 hours after infiltration, the fluorescent signals in the leaves were imaged using a Zeiss LSM-880 laser-scanning confocal microscope (Zeiss, Thornwood, NY, USA).

Consider 4 molecules from patent US20250034601A1 (PURDUE RESEARCH FOUNDATION, published 2025).

Regarding B1, the binding result in data set [1] and in data set [2] was “binds” throughout. With B2, the binding result in data set [1] was “binds”.

As to B3, the binding result in data set [3] is on record as “binds”. On to B4, for which the binding result in data set [1] is “binds”.
